From patent publication US8209131B2, “Therapeutic heparins and their binding to interleukins 4 and 5 and PECAM-1” (Curtin University of Technology, priority 2004, dated 2012)

How the values were obtained:
[1] = BIAcore binding of proteins to heparin immobilised on a biosensor chip; conditions: IL-4 WT and mutants binding to heparin
Description: This technology uses the optical phenomenon of surface plasmon resonance to monitor physical interactions between molecules. Passing the protein solution over a sensor surface to which the ligand is coupled monitors the real-time binding of proteins to an immobilized ligand. Detection is achieved by measuring refractive index changes very close to the sensor surface. When the refractive index is altered, the angle at which plasmon resonance occurs changes and this change directly correlates with the amount of protein interacting with the surface. A BIAcore 2000 is conveniently used. It is very sensitive and its microfluidics ensures that only small amounts of material are required.
The HLGAGs are immobilized on the biosensor chip. Intact HLGAGs are biotinylated via amino groups, or reducing termini modified with ammonia by reductive amination, using sulfo-NHS-biotin. Biotinylated HLGAGs are immobilized on streptavidin-coupled sensor chips. Solutions containing proteins of interest are injected over the sensor chip surface, and the binding is measured in real time (Fernig, In: Proteoglycan protocols, Ed. R.V. Iozzo, Humana Press, Totowa, N.J., USA, 2001). […] In all cases binding is specific, as there is little or no interaction with sensor chips lacking heparin with any of the targeted proteins, and binding is inhibited by exogenous heparin. Initial analyzes indicate that the binding of rhIL-5 to heparin has affinity constants of the order from 50-5×10^−9. Because unsubstituted amines are variably present in heparan sulfates from different tissues, an alternative method of biotin labeling is recommended for the heparan sulfate chip. In this case, heparan sulfate is labeled via oxidized cis-diol residues using biotinyl-LC-hydrazine. […]
Binding experiments with these proteins has indicated to which PECAM-1 domains heparin binds. Two binding assays were used: the assay where PECAM-1 is reacted with a BIAcore biosensor chip to which heparin has been immobilised and the second assay is the binding of PECAM-1 to heparan sulfate on the cell surface.
Site directed mutagenesis was performed on IL-4. Basic residues within the proposed heparin binding site were changed to alanine and the proteins expressed using the baculovirus expression system. The one exception was R88 which was changed to valine. Insect cell expressed proteins were purified on an anti-IL-4 affinity column and checked for purity by SDS-PAGE and silver staining. Mutant IL-4 proteins were examined for their ability to bind heparin immobilised on a biosensor chip and binding assessed using a BIAcore 2000.

TF1.8 cells = experiment: TF1.8 bioassay of IL-4 mutants (support of proliferation); format: cell-based, human; conditions: IL-4 wt and mutants, TF1.8 cells
Procedure: TF-1.8 cells have been transfected with the firefly luciferase gene contained in the expression vector, pPGK-puromycin-luciferase (Coombe et al., 1998, Supra). The positive transfectants are cloned to produce a line with good luciferase expression. The proliferation assays are carried out in 96-well microplates suitable for such assays Falcon). The wells are flat bottomed, with white sides and a clear bottom. Cells are washed to remove any cytokine in the growth medium and then resuspended in RPMI/5% w/v FCS. The cells are counted with a Coulter Multisizer (Coulter Electronics, England) and routinely 2.5×10^4 cells are added to microplate wells that contain either no IL-4 (negative control) or various dilutions of IL-4. When the effect of HLGAGs, chondroitin sulfate C, or the heparin fractions of a particular length, or heparin fragments of a particular length and structure is to be measured, the wells also contain various concentrations of these molecules.
The cells proliferate for 48 hours at 37° C. in a humidified atmosphere, after which the luciferase activity is measured by the addition of 50 μl of luciferase substrate buffer (50 mm Tris-HCl, pH 7.8, 15 mM MgSO4, 33.3 mM DTT, 0.1 mM EDTA, 0.5 mM Na-luciferin, 0.5 mM ATP, 0.25 mM lithium Co A and 0.5% v/v Triton X-100). Immediately after the addition of the luciferase buffer the plate is assayed for luciferase activity. Light emissions are detected on a Victor 1420 Multilabel counter (Wallac, Turku, Finland).
IL-4 mutants were compared with WT for their ability to support the proliferation of TF1.8 cells. Titration curves were performed for each of the mutants and the concentration needed to support 50% of cell growth was determined.

B1: K21A: IL-4 mutant, baculovirus expressed (protein)
chain: HKCDITLQEIIKTLNSLTEQATLCTELTVTDIFAASKNTTEKETFCRAATVLRQFYSHHEKDTRCLGATAQQFHRHKQLIRFLKRLDRNLWGLAGLNSCPVKEANQSTLENFLERLKTIMREKYSKCSS
ka ([1]; in M-1s-1 (unit assumed)): 4.86E+04 | kd ([1]; in s-1 (unit assumed)): 2.53E−03 | Kd ([1]; read-out: KD): 52.1 nM | Conc needed for 50% growth, average (TF1.8 cells): 1.36 ng/mL
